Assay results from the supplement of paper PMC6757056.
± gives the standard deviation of the averaged measurements.

B1: library; a variant is named by its letters at N, in order (parent)
chain: GCUGUCACCGGAAUACCAGCAUCGUCUUGAUGCCCUUGGAAGUCCGGUCUGAUGAGUCCNNNNNGGACGAAACAGC

Legend:
theophylline [1] = variants of: B1; experiment: FACS-Seq fitted mean relative fluorescence mCherry/BFP without ligand (log10 relative fluorescence); higher = higher reporter protein expression; conditions: HEK293T, ligand present: no
Method in brief: (§1)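 Reporter cells were enriched HEK293T libraries transduced by lentivirus with mCherry behind the ribozyme switch and with an EF1α-BFP marker. Following 48 h with or without ligand, they were sorted into 6 mCherry/BFP bins, and bin genomic DNA was PCR-amplified, barcoded and MiSeq-sequenced. Fluorescence was computed as the fitted normal mean of the bin counts. The fit used log10(mCherry/BFP), with scaling to five spiked-in control ribozymes.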

theophylline [2] = variants of: B1; experiment: normalized RNA/DNA level with ligand (relative to sTRSVctl = 100) (log10 (% of sTRSVctl)); higher = less ribozyme self-cleavage, higher mRNA level; conditions: ligand concentration (+) RNA-Seq: 5 mM, HEK293T, reporter: mCherry (pCS4076), ligand present: yes
Method in brief: (§2)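 HEK293T cells were transfected with library plasmids carrying ribozyme switches linked to an mCherry reporter, or an eGFP reporter in some ligand experiments, at 4 µg per well of a 6-well plate, with any ligand added 1 h beforehand. After 72 h, total RNA was extracted with EDTA, reverse-transcribed, amplified, barcoded and sequenced. RNA level was defined as RNA reads over DNA reads, normalized to a spiked-in non-cleaving sequence or to the top-ranked sequences. That value was multiplied by 100 and converted to log10, the top set was 25 sequences, and only sequences with ≥100 DNA reads were retained.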

theophylline [3] = variants of: B1; experiment: normalized RNA/DNA level without ligand (relative to sTRSVctl = 100) (log10 (% of sTRSVctl)); higher = less ribozyme self-cleavage, higher mRNA level; conditions: HEK293T, reporter: mCherry (pCS4076), ligand present: no
Method in brief: as §2

theophylline [4] = variants of: B1; experiment: FACS-Seq fitted mean relative fluorescence mCherry/BFP with ligand (log10 relative fluorescence); ligand concentration (+) FACS-Seq: 1 mM; higher = higher reporter protein expression; conditions: HEK293T, ligand present: yes
Method in brief: as §1

| Variant | FACS-Seq fitted mean (log10) (theophylline [1]) | normalized RNA/DNA level with ligand (log10) (theophylline [2]) | normalized RNA/DNA level without ligand (log10) (theophylline [3]) | FACS-Seq fitted mean (log10) (theophylline [4]) |
| --- | --- | --- | --- | --- |
| CGUUC | 0.959 ± 0.048 | 1.8643 ± 0.00065 | 1.75 ± 0.07 | 0.949 ± 0.067 |
| CGUUU | 0.252 ± 0.084 | 2.06 ± 0.11 | 1.53 ± 0.077 | 0.945 ± 0.041 |
| CUACA | 0.702 ± 0.027 | 2.031 ± 0.0063 | 1.84 ± 0.021 | 0.826 ± 0.11 |
| CUACU | 0.761 ± 0.11 | 1.96 ± 0.087 | 1.8 ± 0.019 | 0.924 ± 0.034 |
| CUACC | 0.996 ± 0.11 | 1.968 ± 0.015 | 1.96 ± 0.11 | 1.02 ± 0.03 |
| UGUCU | 0.747 ± 0.19 | 2.02 ± 0.035 | 1.988 ± 0.0094 | 0.783 ± 0.043 |
| CUCCA | 1.01 ± 0.29 | 2.03 ± 0.048 | 1.87 ± 0.038 | 0.946 ± 0.15 |
| CUCCC | 0.836 ± 0.04 | 2.05 ± 0.12 | 2 ± 0.14 | 0.811 ± 0.012 |
| CUCCU | 0.814 ± 0.015 | 2.005 ± 0.011 | 1.88 ± 0.098 | 0.682 ± 0.033 |
| CGUAC | 0.651 ± 0.027 | 1.92 ± 0.093 | 1.75 ± 0.062 | 0.792 ± 0.044 |
| CGUAA | 0.083 ± 0.047 | 2.04 ± 0.029 | 1.303 ± 0.0043 | 0.767 ± 0.036 |
| CGUAU | 0.177 ± 0.0091 | 2 ± 0.05 | 1.54 ± 0.11 | 0.491 ± 0.0065 |
| CUGGA | 1.07 ± 0.09 | 2.02 ± 0.043 | 1.84 ± 0.095 | 1.09 ± 0.045 |
| CUGCU | 0.644 ± 0.032 | 1.92 ± 0.082 | 1.86 ± 0.062 | 0.658 ± 0.0024 |
| CUGCC | 0.906 ± 0.094 | 2.09 ± 0.045 | 1.9591 ± 0.0014 | 0.841 ± 0.055 |
| CUCGA | 0.868 ± 0.018 | 2.04 ± 0.076 | 1.95 ± 0.12 | 0.883 ± 0.1 |
| GUAUU | 0.754 ± 0.04 | 2.01 ± 0.053 | 1.88 ± 0.046 | 0.8044 ± 0.005 |
| GUCCU | 1.16 ± 0.13 | 2.03 ± 0.052 | 2 ± 0.1 | 1.13 ± 0.12 |

| Variant | FACS-Seq fitted mean (log10) (theophylline [1]) | normalized RNA/DNA level with ligand (log10) (theophylline [2]) | normalized RNA/DNA level without ligand (log10) (theophylline [3]) | FACS-Seq fitted mean (log10) (theophylline [4]) |
| --- | --- | --- | --- | --- |
| AUGGC | 0.932 ± 0.11 | 2.008 ± 0.0029 | 1.88 ± 0.085 | 0.903 ± 0.041 |
| AUGGU | 0.596 ± 0.13 | 2.02 ± 0.032 | 1.78 ± 0.044 | 0.728 ± 0.049 |
| AUGGA | 0.368 ± 0.04 | 1.94 ± 0.043 | 1.68 ± 0.16 | 0.63116 ± 0.00056 |
| UUACG | 1.08 ± 0.025 | 2.019 ± 0.0074 | 1.93 ± 0.029 | 1.02 ± 0.027 |
| UUACC | 0.865 ± 0.28 | 2.02 ± 0.022 | 1.96 ± 0.095 | 0.847 ± 0.12 |
| UUACU | 1.05 ± 0.07 | 2.08 ± 0.052 | 1.93 ± 0.058 | 1.01 ± 0.18 |
| AUGCA | 0.792 ± 0.023 | 2.023 ± 0.014 | 1.841 ± 0.0049 | 0.96 ± 0.14 |
| AUGCC | 0.828 ± 0.054 | 2 ± 0.033 | 1.96 ± 0.071 | 0.852 ± 0.022 |
| AUGCG | 0.848 ± 0.14 | 1.99 ± 0.11 | 1.87 ± 0.06 | 0.986 ± 0.1 |
| CGUGA | -0.0723 ± 0.18 | 1.97 ± 0.025 | 1.58 ± 0.054 | 0.221 ± 0.11 |
| UUGCG | 1.18 ± 0.2 | 1.95 ± 0.094 | 1.82 ± 0.08 | 1.12 ± 0.074 |
| UUGCC | 0.794 ± 0.064 | 1.99 ± 0.067 | 1.95 ± 0.021 | 0.78 ± 0.06 |
| UUGCU | 0.987 ± 0.11 | 1.94 ± 0.083 | 1.91 ± 0.03 | 0.922 ± 0.042 |
| AUACA | 0.687 ± 0.07 | 1.98 ± 0.021 | 1.85 ± 0.12 | 0.796 ± 0.012 |
| AUACU | 0.617 ± 0.06 | 2.02 ± 0.038 | 1.79 ± 0.033 | 0.713 ± 0.032 |
| AUACG | 0.526 ± 0.063 | 2.0061 ± 0.0018 | 1.831 ± 0.0082 | 0.507 ± 0.02 |
| AGUCA | 0.8 ± 0.087 | 1.98 ± 0.14 | 1.73 ± 0.059 | 0.766 ± 0.027 |
